# Measured values reported in IntAct's records for PubMed 28335037.
# B1: E3 ubiquitin-protein ligase LRSAM1 (Homo sapiens), Q6UWE0 (parent)
# chain: MPLFFRKRKPSEEARKRLEYQMCLAKEAGADDILDISKCELSEIPFGAFATCKVLQKKVLIVHTNHLTSLLPKSCSLLSLATIKVLDLHDNQLTALPDDLGQLTALQVLNVERNQLMQLPRSIGNLTQLQTLNVKDNKLKELPDTVGELRSLRTLNISGNEIQRLPQMLAHVRTLEMLSLDASAMVYPPREVCGAGTAAILQFLCKESGLEYYPPSQYLLPILEQDGIENSRDSPDGPTDRFSREELEWQNRFSDYEKRKEQKMLEKLEFERRLELGQREHTQLLQQSSSQKDEILQTVKEEQSRLEQGLSEHQRHLNAERQRLQEQLKQTEQNISSRIQKLLQDNQRQKKSSEILKSLENERIRMEQLMSITQEETESLRRRDVASAMQQMLTESCKNRLIQMAYESQRQNLVQQACSSMAEMDERFQQILSWQQMDQNKAISQILQESAMQKAAFEALQVKKDLMHRQIRSQIKLIETELLQLTQLELKRKSLDTESLQEMISEQRWALSSLLQQLLKEKQQREEELREILTELEAKSETRQENYWLIQYQRLLNQKPLSLKLQEEGMERQLVALLEELSAEHYLPIFAHHRLSLDLLSQMSPGDLAKVGVSEAGLQHEILRRVQELLDAARIQPELKPPMGEVVTPTAPQEPPESVRPSAPPAELEVQASECVVCLEREAQMIFLNCGHVCCCQQCCQPLRTCPLCRQDIAQRLRIYHSS
# Variants of: B1
# Conditions: with ube2b_rabit UBE2B
row,effect of a mutation on the interaction,Variant
1,disrupting interaction strength,P707L
2,disrupting interaction strength,C694Y
3,with no effect,Q573K
